Experimental data: PMC5745067 (Neuron, 2017)

B1: extracellular domain of rat NLGN2 (Val43-His612, containing the site A insert) (domain or fragment, UniProt Q62888-1 43-612, looked up)
chain: VVNTAYGRVRGVRRELNNEILGPVVQFLGVPYATPPLGARRFQPPEAPASWPGVRNATTLPPACPQNLHGALPAIMLPVWFTDNLEAAATYVQNQSEDCLYLNLYVPTEDGPLTKKRDEATLNPPDTDIRDSGKKPVMLFLHGGSYMEGTGNMFDGSVLAAYGNVIVATLNYRLGVLGFLSTGDQAAKGNYGLLDQIQALRWLSENIAHFGGDPERITIFGSGAGASCVNLLILSHHSEGLFQKAIAQSGTAISSWSVNYQPLKYTRLLAAKVGCDREDSTEAVECLRRKSSRELVDQDVQPARYHIAFGPVVDGDVVPDDPEILMQQGEFLNYDMLIGVNQGEGLKFVEDSAESEDGVSASAFDFTVSNFVDNLYGYPEGKDVLRETIKFMYTDWADRDNGEMRRKTLLALFTDHQWVAPAVATAKLHADYQSPVYFYTFYHHCQAEGRPEWADAAHGDELPYVFGVPMVGATDLFPCNFSKNDVMLSAVVMTYWTNFAKTGDPNQPVPQDTKFIHTKPNRFEEVVWSKFNSKEKQYLHIGLKPRVRDNYRANKVAFWLELVPHLHNLH

What was measured:
NLGN2-Fc = NLGN2-Fc (UniProt Q8NFZ4); experiment: cell-surface binding assay; settings: cited from earlier work
neurexin 1β = neurexin 1β (UniProt P58400); experiment: SPR; settings: cited from earlier work
crystal structure = target: the molecule itself; experiment: crystal structure
[1] = target: B1; experiment: fluorescence polarisation

Chain of NLGN2-Fc (Q8NFZ4 15-677): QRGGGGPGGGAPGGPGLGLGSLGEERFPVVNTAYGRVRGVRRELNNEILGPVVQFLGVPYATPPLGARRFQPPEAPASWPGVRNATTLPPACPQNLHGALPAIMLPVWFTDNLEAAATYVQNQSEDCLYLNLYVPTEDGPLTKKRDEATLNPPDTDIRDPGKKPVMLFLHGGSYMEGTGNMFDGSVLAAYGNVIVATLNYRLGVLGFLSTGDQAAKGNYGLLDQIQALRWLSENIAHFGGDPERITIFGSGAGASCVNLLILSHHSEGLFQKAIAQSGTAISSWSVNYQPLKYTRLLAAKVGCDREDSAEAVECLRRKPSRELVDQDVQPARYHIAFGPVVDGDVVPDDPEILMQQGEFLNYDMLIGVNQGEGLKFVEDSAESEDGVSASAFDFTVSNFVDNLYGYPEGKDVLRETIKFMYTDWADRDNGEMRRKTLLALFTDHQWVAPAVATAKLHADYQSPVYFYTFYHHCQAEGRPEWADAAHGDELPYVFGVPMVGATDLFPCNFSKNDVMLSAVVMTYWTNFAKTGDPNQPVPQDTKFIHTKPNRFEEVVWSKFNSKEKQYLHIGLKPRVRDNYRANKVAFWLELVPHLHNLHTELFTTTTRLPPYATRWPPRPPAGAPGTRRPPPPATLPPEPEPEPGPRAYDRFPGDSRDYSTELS
Chain of neurexin 1β (P58400 51-396): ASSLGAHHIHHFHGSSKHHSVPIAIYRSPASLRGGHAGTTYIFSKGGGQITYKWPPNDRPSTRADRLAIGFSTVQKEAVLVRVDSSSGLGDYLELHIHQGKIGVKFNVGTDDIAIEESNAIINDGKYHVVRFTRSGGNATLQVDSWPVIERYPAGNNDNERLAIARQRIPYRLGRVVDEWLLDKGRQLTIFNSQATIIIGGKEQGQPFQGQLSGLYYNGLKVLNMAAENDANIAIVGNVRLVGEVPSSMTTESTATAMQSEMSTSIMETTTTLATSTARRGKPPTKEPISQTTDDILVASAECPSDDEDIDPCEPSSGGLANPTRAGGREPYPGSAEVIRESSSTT

Molecule: MDGA1 (from UniProt Q8NFP4)
- Kd (NLGN2-Fc): 7 nM

Molecule: MDGA2 (from UniProt Q7Z553)
- Kd (NLGN2-Fc): 46 nM

Molecule: NLGN1 (from UniProt Q62765)
- Kd (neurexin 1β): > 10 µM

Molecule: B1
- stoichiometry N (crystal structure): 2

B2: MDGA1 C2 (Ig1–Ig3; Y22-K330) (domain or fragment, human, UniProt Q8NFP4-1 22-330, looked up)
chain: YAPAQAQIVHAGQACVVKEDNISERVYTIREGDTLMLQCLVTGHPRPQVRWTKTAGSASDKFQETSVFNETLRIERIARTQGGRYYCKAENGVGVPAIKSIRVDVQYLDEPMLTVHQTVSDVRGNFYQEKTVFLRCTVNSNPPARFIWKRGSDTLSHSQDNGVDIYEPLYTQGETKVLKLKNLRPQDYASYTCQVSVRNVCGIPDKAITFRLTNTTAPPALKLSVNETLVVNPGENVTVQCLLTGGDPLPQLQWSHGPGPLPLGALAQGGTLSIPSVQARDSGYYNCTATNNVGNPAKKTVNLLVRSMK
modifications: TAMRA label ((5/6)-TAMRA-SE) in the FP assay
- binding result [1]: binds

B3: MDGA1 C4 (Ig1–Ig4; Y22-I433) (domain or fragment, human, UniProt Q8NFP4-1 22-433, looked up)
chain: YAPAQAQIVHAGQACVVKEDNISERVYTIREGDTLMLQCLVTGHPRPQVRWTKTAGSASDKFQETSVFNETLRIERIARTQGGRYYCKAENGVGVPAIKSIRVDVQYLDEPMLTVHQTVSDVRGNFYQEKTVFLRCTVNSNPPARFIWKRGSDTLSHSQDNGVDIYEPLYTQGETKVLKLKNLRPQDYASYTCQVSVRNVCGIPDKAITFRLTNTTAPPALKLSVNETLVVNPGENVTVQCLLTGGDPLPQLQWSHGPGPLPLGALAQGGTLSIPSVQARDSGYYNCTATNNVGNPAKKTVNLLVRSMKNATFQITPDVIKESENIQLGQDLKLSCHVDAVPQEKVTYQWFKNGKPARMSKRLLVTRNDPELPAVTSSLELIDLHFSDYGTYLCMASFPGAPVPDLSVEVNI
modifications: TAMRA label ((5/6)-TAMRA-SE) in the FP assay
- binding result [1]: binds

B4: MDGA1 C8 (Ig1–Ig2; Y22-T237) (domain or fragment, human, UniProt Q8NFP4-1 22-237, looked up)
chain: YAPAQAQIVHAGQACVVKEDNISERVYTIREGDTLMLQCLVTGHPRPQVRWTKTAGSASDKFQETSVFNETLRIERIARTQGGRYYCKAENGVGVPAIKSIRVDVQYLDEPMLTVHQTVSDVRGNFYQEKTVFLRCTVNSNPPARFIWKRGSDTLSHSQDNGVDIYEPLYTQGETKVLKLKNLRPQDYASYTCQVSVRNVCGIPDKAITFRLTNTT
modifications: TAMRA label ((5/6)-TAMRA-SE) in the FP assays; no label told for the crystals
- Kd [1]: 21 nM
